Measured values taken from US20230295258A1 (KANAPH THERAPEUTICS, published 2023).

Target: IL-12 receptor of human T cells (human, UniProt P42701 24-662; Q99665 24-862)
Test: cell-based or functional assay

IL-12 receptor of human T cells, sequence (Q99665 24-862, chain 2 of 2, other chains not shown): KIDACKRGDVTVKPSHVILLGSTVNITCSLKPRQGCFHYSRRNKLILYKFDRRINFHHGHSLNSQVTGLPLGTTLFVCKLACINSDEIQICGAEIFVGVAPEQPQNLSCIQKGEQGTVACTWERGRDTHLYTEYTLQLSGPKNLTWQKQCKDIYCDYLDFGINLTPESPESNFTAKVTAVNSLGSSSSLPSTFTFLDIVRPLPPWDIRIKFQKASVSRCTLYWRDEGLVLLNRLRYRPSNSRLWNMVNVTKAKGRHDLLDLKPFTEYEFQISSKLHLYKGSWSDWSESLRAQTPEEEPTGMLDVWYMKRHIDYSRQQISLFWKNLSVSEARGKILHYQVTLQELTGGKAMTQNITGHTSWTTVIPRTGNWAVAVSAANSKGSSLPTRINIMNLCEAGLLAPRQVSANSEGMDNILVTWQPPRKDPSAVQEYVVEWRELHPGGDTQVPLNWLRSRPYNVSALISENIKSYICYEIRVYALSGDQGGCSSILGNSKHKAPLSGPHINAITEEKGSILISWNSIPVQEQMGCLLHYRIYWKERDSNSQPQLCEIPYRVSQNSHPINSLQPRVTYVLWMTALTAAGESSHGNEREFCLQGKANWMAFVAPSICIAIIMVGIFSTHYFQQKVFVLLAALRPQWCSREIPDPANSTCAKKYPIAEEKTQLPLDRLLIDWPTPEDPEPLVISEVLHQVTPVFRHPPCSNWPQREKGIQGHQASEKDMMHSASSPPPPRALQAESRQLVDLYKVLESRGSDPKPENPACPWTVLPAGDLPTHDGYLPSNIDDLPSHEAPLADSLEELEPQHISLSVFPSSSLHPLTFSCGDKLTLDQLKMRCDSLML

Binder | change of the p-STAT4 EC50 in human T cells with low molecular weight heparin against without [times] | half maximal effective concentration (EC50) of p-STAT4 (Tyr693) in activated human T cells, AlphaLISA [pM]
T1.02 (anti-hu FAP/hu IL-12 mut1, hu IgG1 DANG) (bispecific antibody) heavy: QVQLVQSGAEVKKPGASVKVSCKTSRYTFTEYTIHWVRQAPGQRLEWIGGINPNNGIPNYNQKFKGRVTITVDTSASTAYMELSSLRSEDTAVYYCARRRIAYGYDEGHAMDYWGQGTLVTVSSASTKGPSVFPLAPSSKSTSGGTAALGCLVKDYFPEPVTVSWNSGALTSGVHTFPAVLQSSGLYSLSSVVTVPSSSLGTQTYICNVNHKPSNTKVDKKVEPKSCDKTHTCPPCPAPELLGGPSVFLFPPKPKDTLMISRTPEVTCVVVAVSHEDPEVKFNWYVDGVEVHNAKTKPREEQYGSTYRVVSVLTVLHQDWLNGKEYKCKVSNKALPAPIEKTISKAKGQPREPQVYTLPPSRDELTKNQVSLWCLVKGFYPSDIAVEWESNGQPENNYKTTPPVLDSDGSFFLYSKLTVDKSRWQQGNVFSCSVMHEALHNHYTQKSLSLSPGK light: not shown not shown | 5.5 | 56.5
T1.01 (anti-hu FAP/hu IL-12, hu IgG1 DANG) (bispecific antibody) heavy: QVQLVQSGAEVKKPGASVKVSCKTSRYTFTEYTIHWVRQAPGQRLEWIGGINPNNGIPNYNQKFKGRVTITVDTSASTAYMELSSLRSEDTAVYYCARRRIAYGYDEGHAMDYWGQGTLVTVSSASTKGPSVFPLAPSSKSTSGGTAALGCLVKDYFPEPVTVSWNSGALTSGVHTFPAVLQSSGLYSLSSVVTVPSSSLGTQTYICNVNHKPSNTKVDKKVEPKSCDKTHTCPPCPAPELLGGPSVFLFPPKPKDTLMISRTPEVTCVVVAVSHEDPEVKFNWYVDGVEVHNAKTKPREEQYGSTYRVVSVLTVLHQDWLNGKEYKCKVSNKALPAPIEKTISKAKGQPREPQVYTLPPSRDELTKNQVSLWCLVKGFYPSDIAVEWESNGQPENNYKTTPPVLDSDGSFFLYSKLTVDKSRWQQGNVFSCSVMHEALHNHYTQKSLSLSPGK light: not shown not shown | 9.4 | 14.5
T1.03 (anti-hu FAP/hu IL-12 mut2, hu IgG1 DANG) (bispecific antibody) heavy: QVQLVQSGAEVKKPGASVKVSCKTSRYTFTEYTIHWVRQAPGQRLEWIGGINPNNGIPNYNQKFKGRVTITVDTSASTAYMELSSLRSEDTAVYYCARRRIAYGYDEGHAMDYWGQGTLVTVSSASTKGPSVFPLAPSSKSTSGGTAALGCLVKDYFPEPVTVSWNSGALTSGVHTFPAVLQSSGLYSLSSVVTVPSSSLGTQTYICNVNHKPSNTKVDKKVEPKSCDKTHTCPPCPAPELLGGPSVFLFPPKPKDTLMISRTPEVTCVVVAVSHEDPEVKFNWYVDGVEVHNAKTKPREEQYGSTYRVVSVLTVLHQDWLNGKEYKCKVSNKALPAPIEKTISKAKGQPREPQVYTLPPSRDELTKNQVSLWCLVKGFYPSDIAVEWESNGQPENNYKTTPPVLDSDGSFFLYSKLTVDKSRWQQGNVFSCSVMHEALHNHYTQKSLSLSPGK light: not shown not shown | 4 | 147
